Molecular target: CD44-AFAP-110 complex (human (endogenous in MDA-MB-231)) (UniProt P16070)
Assay: radioligand binding

UniProt P16070, sequence (P16070 21-742, chain 1 of 2): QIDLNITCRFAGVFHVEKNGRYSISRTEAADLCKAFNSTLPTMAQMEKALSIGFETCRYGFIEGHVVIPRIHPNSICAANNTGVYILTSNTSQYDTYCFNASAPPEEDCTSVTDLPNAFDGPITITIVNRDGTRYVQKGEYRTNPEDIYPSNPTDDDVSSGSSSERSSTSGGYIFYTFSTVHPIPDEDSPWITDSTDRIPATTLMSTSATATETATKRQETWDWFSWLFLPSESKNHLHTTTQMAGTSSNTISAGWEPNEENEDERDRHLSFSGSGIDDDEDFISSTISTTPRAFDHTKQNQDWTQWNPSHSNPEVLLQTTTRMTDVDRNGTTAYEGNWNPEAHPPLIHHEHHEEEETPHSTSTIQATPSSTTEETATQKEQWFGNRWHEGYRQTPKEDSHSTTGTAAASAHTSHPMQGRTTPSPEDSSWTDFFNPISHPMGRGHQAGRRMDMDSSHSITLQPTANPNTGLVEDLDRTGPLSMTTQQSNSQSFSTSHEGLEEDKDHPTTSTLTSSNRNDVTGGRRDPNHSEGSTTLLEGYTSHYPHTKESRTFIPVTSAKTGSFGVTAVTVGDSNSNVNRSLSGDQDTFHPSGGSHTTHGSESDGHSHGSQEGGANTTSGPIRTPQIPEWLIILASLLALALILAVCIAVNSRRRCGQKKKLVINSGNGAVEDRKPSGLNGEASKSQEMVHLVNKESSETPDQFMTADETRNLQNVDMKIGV
UniProt P16070, sequence (Q8N556 whole entry, chain 2 of 2, further chain): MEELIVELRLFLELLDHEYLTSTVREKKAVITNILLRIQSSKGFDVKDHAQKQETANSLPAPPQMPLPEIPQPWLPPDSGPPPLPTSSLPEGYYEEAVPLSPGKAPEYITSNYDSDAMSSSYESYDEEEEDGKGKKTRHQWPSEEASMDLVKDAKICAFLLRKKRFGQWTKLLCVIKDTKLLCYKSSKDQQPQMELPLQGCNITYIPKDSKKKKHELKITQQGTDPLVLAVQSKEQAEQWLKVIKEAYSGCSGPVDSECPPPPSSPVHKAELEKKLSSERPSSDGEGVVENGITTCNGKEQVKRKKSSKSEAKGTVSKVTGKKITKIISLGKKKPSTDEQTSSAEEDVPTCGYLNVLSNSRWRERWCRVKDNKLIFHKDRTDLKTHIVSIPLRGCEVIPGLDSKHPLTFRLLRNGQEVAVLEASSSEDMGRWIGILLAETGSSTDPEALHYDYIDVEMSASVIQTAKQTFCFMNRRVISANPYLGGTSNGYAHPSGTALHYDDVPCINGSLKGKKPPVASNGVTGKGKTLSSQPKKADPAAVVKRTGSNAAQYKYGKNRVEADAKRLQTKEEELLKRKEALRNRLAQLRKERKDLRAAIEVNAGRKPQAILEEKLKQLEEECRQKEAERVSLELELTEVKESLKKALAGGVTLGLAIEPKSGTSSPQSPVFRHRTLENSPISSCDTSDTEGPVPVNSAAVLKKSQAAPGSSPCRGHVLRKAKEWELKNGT

Substance: filamentous actin (F-actin) (natural protein)
- 125I-F-actin bound, cpm (cells: HA fragment (2-3 disaccharide) treatment): 11700 cpm
- 125I-F-actin bound, cpm (cells: HMW-HA treatment): 13800 cpm
- 125I-F-actin bound, cpm (cells: LMW-HA treatment): 38400 cpm
- 125I-F-actin bound, cpm (cells: anti-CD44 IgG + LMW-HA treatment): 12500 cpm
- 125I-F-actin bound, cpm (cells: no treatment, control): 12700 cpm
- 125I-F-actin bound, cpm (cells: normal IgG + LMW-HA treatment): 38000 cpm
- 125I-F-actin bound, cpm (cells: normal IgG + no HA treatment): 12500 cpm
- 125I-F-actin bound, cpm (cells: scrambled siRNA, HMW-HA treatment): 11500 cpm
- 125I-F-actin bound, cpm (cells: scrambled siRNA, LMW-HA treatment): 31800 cpm
- 125I-F-actin bound, cpm (cells: scrambled siRNA, no treatment, control): 11000 cpm

From publication PMC3240717
